The target in series [1] is YweA_(BslA171-181 C178A), recombinant chimeric protein (Bacillus subtilis) (UniProt P71014). In words: non-reducing SDS-PAGE.
Series [2] addresses YweA_(BslA171-181 C180A), recombinant chimeric protein (Bacillus subtilis) (UniProt P71014). In words: non-reducing SDS-PAGE.
For series [3], the target named is YweA_(BslA171-181), recombinant chimeric protein (Bacillus subtilis). In words: SEC + other: non-reducing SDS-PAGE.
Series [4] concerns the molecule itself. Put plainly: SEC + other: non-reducing SDS-PAGE.
The series “cross-linking” concerns the molecule itself. Put plainly: cross-linking.

Experimental findings from publication doi:10.1101/138099 (bioRxiv, 2017) are described below.

What is called stoichiometry N is the number of molecules, sites or subunits per partner or assembly.

Positions count from the first letter of the chain named. Names may count otherwise. “And” between values parts separate entries of the source, which are not always exact repeats. Equal values may be shown once.

Regarding “YweA_(BslA171-181 C178A), recombinant chimeric protein (from UniProt P71014 171-181)”, in series [1], the stoichiometry N was found to be 2.
“YweA_(BslA171-181 C180A), recombinant chimeric protein (from UniProt P71014 171-181)”: the stoichiometry N in series [2] is 2.
In the case of “YweA_(BslA171-181), recombinant chimeric protein”, the stoichiometry N in series [3] was 2.

B1: Recombinant BslA_(42-181) (domain or fragment, Bacillus subtilis, UniProt P71014 42-181, looked up)
chain: MRTQSTASLFATITGASKTEWSFSDIELTYRPNTLLSLGVMEFTLPSGFTANTKDTLNGNALRTTQILNNGKTVRVPLALDLLGAGEFKLKLNNKTLPAAGTYTFRAENKSLSIGNKFYAEASIDVAKRSTPPTQPCGCN
On to B1, for which the “stoichiometry N” value in series [4] was 2 and 4.

B2: BslA_(C178A), recombinant BslA_(42-181) variant (domain or fragment, Bacillus subtilis, UniProt P71014 42-181, looked up)
chain: B1 chain with C137A
Take B2: the “stoichiometry N” value in series [4] was determined as 2.

B3: BslA_(C180A), recombinant BslA_(42-181) variant (domain or fragment, Bacillus subtilis, UniProt P71014 42-181, looked up)
chain: B1 chain with C139A
For the molecule B3, the “stoichiometry N” value in series [4] stood at 2.

B4: BslA, wild type, from the B. subtilis NCIB3610 biofilm (natural protein, UniProt P71014 29-181, looked up)
chain: AESTSTKAHTESTMRTQSTASLFATITGASKTEWSFSDIELTYRPNTLLSLGVMEFTLPSGFTANTKDTLNGNALRTTQILNNGKTVRVPLALDLLGAGEFKLKLNNKTLPAAGTYTFRAENKSLSIGNKFYAEASIDVAKRSTPPTQPCGCN
Take B4: the “stoichiometry N” value in the series “cross-linking” was 2 and 4.

B5: BslA_(C178A) produced in the B. subtilis bslA deletion strain (NRS5177) (natural protein, Bacillus subtilis, UniProt P71014 29-181, looked up)
chain: B4 chain with C150A
For B5, the “stoichiometry N” value in “cross-linking” worked out at 2.

B6: BslA_(C180A) produced in the B. subtilis bslA deletion strain (NRS5178) (natural protein, Bacillus subtilis, UniProt P71014 29-181, looked up)
chain: B4 chain with C152A
On to B6, for which, in the series “cross-linking”, the “stoichiometry N” value came to 2.
